Laboratory results taken from patent publication US20250134988A1 (WISTAR INSTITUTE OF ANATOMY AND BIOLOGY, published 2025).
Changes are numbered by the printed parent chain. Names and notes keep the numbering of the source.

B1: C2691 (antibody, V domains shown)
VH: QVQLQQSGPELVRPGESVKISCKGSGYTFTDYAMHWVKQSHAKSLEWIGIISFYYDNTKYNQNFKGKATMTVDKSSSTAYMELARLTSEDSAIYFCASQGIHYYGSFAYWGQGTLVTVSA
VL: DIVMTQSQKFMSTSVGDRVSVSCKASQNVGTNLGWYQQKPGQSPKALIYSASYRYSGVPDRFTGSGSGTDFTLTISNVQSEDLAEYFCQQYNSSPLTFGAGTKLELK
notes: also called lineage HV1-67/KV6-15 antibody C2691
B2: H110A (antibody, V domains shown)
VH: B1 VH with H102A
VL: B1 VL
notes: member of the group m29; also called C2691 H110A; C2691 CDR3 alanine scanning mutant
B3: I109A (antibody, V domains shown)
VH: B1 VH with I101A
VL: B1 VL
notes: member of the group m29; also called C2691 I109A; C2691 CDR3 alanine scanning mutant
B4: Q107A (antibody, V domains shown)
VH: B1 VH with Q99A
VL: B1 VL
notes: member of the group m29; also called C2691 Q107A; C2691 CDR3 alanine scanning mutant
B5: Y111A (antibody, V domains shown)
VH: B1 VH with Y103A
VL: B1 VL
notes: member of the group m29; also called C2691 Y111A; C2691 CDR3 alanine scanning mutant
B6: Y112A (antibody, V domains shown)
VH: B1 VH with Y104A
VL: B1 VL
notes: member of the group m29; also called C2691 Y112A; C2691 CDR3 alanine scanning mutant

Tests used:
CoV2_5P_FPKO1 = target: T1, CoV2_5P_FPKO1 (SARS-CoV-2, UniProt P0DTC2 14-1208); assay: ELISA
T1 construct: also called 5P KO1

[1] = target: T2, CoV2_5P prefusion-stabilized spike protein (SARS-CoV-2, UniProt P0DTC2 14-1208); assay: ELISA, AUC ratio to wildtype C2691
T2 construct: also called 5P trimer; wildtype 5P

CoV2_5P_NonSFP = target: T3, CoV2_5P_NonSFP (SARS-CoV-2, UniProt P0DTC2 14-1208); assay: ELISA, AUC, on 5P spikes with swapped fusion peptides
T3 construct: also called scrambled fusion peptide spike

Binder | binding result (CoV2_5P_FPKO1) | binding result [1] | binding result (CoV2_5P_NonSFP)
B1 | binds | – | –
B2 | – | binds | no binding
B3 | – | binds | no binding
B4 | – | – | no binding
B5 | – | – | no binding
B6 | – | binds | no binding
